Data published in patent publication US20260193348A1 (ANTENGENE BIOLOGICS, published 2026).
Changes are numbered by the printed parent chain. Names may count otherwise. Blank lines part the entries; values can stand above or below the binder they belong to.

Assays:
[1] = biological target: T1, GPRC5D on MM.1S cells (human, UniProt Q9NZD1 1-345); experiment: cell-based or functional assay
[2] = biological target: T2, CD3 on Jurkat cells (UniProt P07766 23-207; P04234 22-171; P09693 23-182); experiment: FACS on Jurkat cells
T2 construct: whole, on cells; On the cell, CD3 stands in the TCR-CD3 complex; also called cluster of differentiation 3
Experimental: (§1) The binding affinities of the generated humanized Fab-scFv-Fab bispecific antibodies were determined by FACS analysis. […] (a) Jurkat cells were washed by Staining Buffer (PBS+1% BSA) in round bottom 96-well plate. [0833] (b) Antibody dilutions and cells were added to each well, incubated at 4 degrees for 1 hour. [0834] (c) Cells were spined down at 300 g for 3 minutes, and the supernatants were discarded. [0835] (d) Cells were washed with Staining Buffer. […] (e) Step (d) was repeated and the cells were incubated for 0.5 hours at 4 degrees with secondary antibody in Staining Buffer. [0837] (f) After incubation, step (d)-(e) were repeated. […] (g) Staining Buffer was added and fluorescence signals were recorded by flow cytometry.
The binding affinities of the generated humanized Fab-scFv-Fab bispecific antibodies were determined by FACS analysis. The protocol for FACS analysis is identical to that described in Example 3.2, except that different test antibodies were used.

[3] = biological target: T1, GPRC5D on MM.1S cells; experiment: FACS on MM.1S cells
Experimental: To evaluate the binding affinity of the generated chimeric bispecific antibody to T cells, the isolated CD3⁺ T cells were stained by antibodies and the binding affinity was determined by FACS analysis. The protocol of FACS analysis is described as follows: [0785] (a) CD3⁺ T cells were isolated from normal donors. [0786] (b) The isolated CD3⁺ T cells were washed by Staining Buffer (PBS+1% BSA) in round bottom 96-well plate. […] (c) Antibody dilutions were added to each well and mixed with the CD3+ T cells, incubated at 4 degrees for 1 hour. […] (d) Cells were spined at 300 g for 3 minutes, then the supernatants were discarded. [0789] (e) Cells were washed with Staining Buffer. [0790] (f) Step (d) was repeated, and the cells were incubated with secondary antibody in Staining Buffer for 0.5 hours at 4 degrees. [0791] (g) After incubation, step (d)-(e) were repeated. [0792] (h) Cells were resuspended in Staining Buffer and fluorescence signals were recorded by flow cytometry.
The binding affinities of the generated humanized Fab-scFv-Fab bispecific antibodies to MM.1S were evaluated by FACS analysis. The protocol for FACS analysis is identical to that described in Example 1.2, except that MM.1S were used in this example.

[4] = biological target: T1, GPRC5D on MM.1S cells; experiment: cell-based or functional assay; remark: listed apart in the source
[5] = biological target: T3, GPRC5D (G-protein coupled receptor family C group 5 member D), human, on multiple myeloma cell lines (human, UniProt Q9NZD1 1-345); experiment: cell-based or functional assay
[6] = biological target: T3, GPRC5D (G-protein coupled receptor …); experiment: cell-based or functional assay; remark: listed apart in the source
[7] = biological target: T4, CD3 (Cluster of Differentiation 3 protein), human, on T cells / Jurkat cells (human, UniProt P07766 23-207; P04234 22-171; P09693 23-182); experiment: FACS, Jurkat cells, antibody at 50 µg/ml
T4 construct: whole, on cells; part of the TCR-CD3 complex; also called human CD3
Experimental: as §1

T2 sequence (P07766 23-207, chain 1 of 3): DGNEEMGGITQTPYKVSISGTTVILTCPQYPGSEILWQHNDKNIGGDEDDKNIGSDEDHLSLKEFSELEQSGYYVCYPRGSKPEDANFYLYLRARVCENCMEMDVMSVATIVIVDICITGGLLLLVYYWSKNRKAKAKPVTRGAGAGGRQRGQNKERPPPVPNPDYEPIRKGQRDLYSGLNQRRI
T2 sequence (P04234 22-171, chain 2 of 3): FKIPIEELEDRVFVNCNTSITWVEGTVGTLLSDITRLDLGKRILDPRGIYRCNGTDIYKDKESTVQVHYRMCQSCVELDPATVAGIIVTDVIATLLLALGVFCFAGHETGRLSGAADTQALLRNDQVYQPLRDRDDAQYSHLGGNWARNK
T2 sequence (P09693 23-182, chain 3 of 3): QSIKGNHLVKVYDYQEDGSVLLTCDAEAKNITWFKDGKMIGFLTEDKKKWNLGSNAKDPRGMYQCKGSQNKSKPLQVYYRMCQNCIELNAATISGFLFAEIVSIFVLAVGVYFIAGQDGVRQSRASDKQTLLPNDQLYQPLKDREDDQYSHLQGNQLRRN
T3 sequence (Q9NZD1 whole entry): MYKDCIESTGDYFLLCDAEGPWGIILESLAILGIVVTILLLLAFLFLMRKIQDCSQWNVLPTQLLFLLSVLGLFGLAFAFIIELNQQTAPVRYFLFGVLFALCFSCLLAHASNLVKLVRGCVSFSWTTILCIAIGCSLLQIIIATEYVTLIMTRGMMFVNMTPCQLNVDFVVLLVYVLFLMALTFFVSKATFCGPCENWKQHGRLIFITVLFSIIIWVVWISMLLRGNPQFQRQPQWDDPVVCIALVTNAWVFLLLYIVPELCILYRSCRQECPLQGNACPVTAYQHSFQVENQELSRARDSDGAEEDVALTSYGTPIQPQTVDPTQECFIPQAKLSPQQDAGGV
T1 sequence (Q9NZD1 whole entry): as above
T4 sequence (P07766 23-207, chain 1 of 3): as the sequence (P07766 23-207, chain 1 of 3) above
T4 sequence (P04234 22-171, chain 2 of 3): as the sequence (P04234 22-171, chain 2 of 3) above
T4 sequence (P09693 23-182, chain 3 of 3): as the sequence (P09693 23-182, chain 3 of 3) above

Ratio of EC50 (relative to ATG-Bis-40E9), luciferase assay on MM.1S [1]: 6.02 ratio
Ratio of Top RLU (relative to ATG-Bis-40E9), luciferase assay on MM.1S [1]: 0.84 ratio
Ratio of EC50 (relative to ATG-Bis-40E9) [2]: 2.97 ratio
Ratio of Top MFI (relative to ATG-Bis-40E9) [2]: 0.62 ratio
Ratio of EC50 (relative to ATG-Bis-40E9) [3]: 0.913 ratio
Ratio of Top MFI (relative to ATG-Bis-40E9) [3]: 0.972 ratio
B1: Bis-40E9-L2H16 (bispecific antibody)
heavy 1: not shown
heavy 2: EVQLVQSGAEVKKPGASVKVSCKASGYTFTSYVIHWVRQAPGQGLEWMGYFNPYNDGTKYNEEFKGRVTLTSDKSTSTAYMELRSLRSDDTAVYYCARGGVRRYFDVWGQGTTVTVSSASTKGPSVFPLAPSSKSTSGGTAALGCLVKDYFPEPVTVSWNSGALTSGVHTFPAVLQSSGLYSLSSVVTVPSSSLGTQTYICNVNHKPSNTKVDKKVEPKSCGGGGSGGGGSEVQLVQSGAEVKKPGSSVKVSCKASGYTFSDYVIHWVRQAPGQCLEWMGYINPYNDVIKYNEKFKGRVTLTSDKSTSTAYMELSSLRSEDTAVYYCARDSYYSYDGFAYWGQGTLVTVSSGGGGSGGGGSGGGGSGGGGSEIVLTQSPDFQSVTPKEKVTITCSASSSVSYMHWYQQKPDQSPKRLIYDTSKLASGVPSRFSGSGSGTDFTLTINSLEAEDAATYYCQQWSSNPPTFGCGTKVEIKGGGGSGGGGSDKTHTCPPCPAPEAAGGPSVFLFPPKPKDTLMISRTPEVTCVVVDVSHEDPEVKFNWYVDGVEVHNAKTKPREEQYNSTYRVVSVLTVLHQDWLNGKEYKCKVSNKALPAPIEKTISKAKGQPREPQVCTLPPSREEMTKNQVSLSCAVKGFYPSDIAVEWESNGQPENNYKTTPPVLDSDGSFFLVSKLTVDKSRWQQGNVFSCSVMHEALHNHYTQKSLSLSPGK
light: DIQMTQSPSSLSASVGDRVTITCRASQDIGSNLNWLQQKPGKAIKRLIYATFGLDSGVPSRFSGSRSGTDFTLTISSLQPEDFATYYCQQYASFPYTFGGGTKVEIKRTVAAPSVFIFPPSDEQLKSGTASVVCLLNNFYPREAKVQWKVDNALQSGNSQESVTEQDSKDSTYSLSSTLTLSKADYEKHKVYACEVTHQGLSSPVTKSFNRGEC
notes: Fab-scFv-Fab format with LALA mutations; copies: 1 + 1 + 2
Ratio of IC50 (relative to ATG-Bis-40E9), MM.1S cytotoxicity [4]: 4.93 ratio
Ratio of Top cytotoxicity (relative to ATG-Bis-40E9), MM.1S cytotoxicity [4]: 0.98 ratio

Ratio of EC50 (relative to ATG-Bis-40E9), luciferase assay on MM.1S [1]: 1.33 ratio
Ratio of Top RLU (relative to ATG-Bis-40E9), luciferase assay on MM.1S [1]: 0.75 ratio
Ratio of EC50 (relative to ATG-Bis-40E9) [2]: 167 ratio
B2: Bis-40E9-L2H3-N55S.H (bispecific antibody, human IgG1, kappa, L234A L235A)
heavy 1: not shown
heavy 2: B1 heavy 2 with D262S, N286S
light: B1 light
Ratio of IC50 (relative to ATG-Bis-40E9), MM.1S cytotoxicity [4]: 1.06 ratio
Ratio of Top cytotoxicity (relative to ATG-Bis-40E9), MM.1S cytotoxicity [4]: 1 ratio

Ratio of EC50 (relative to ATG-Bis-40E9), luciferase assay on MM.1S [1]: 26.2 ratio
Ratio of Top RLU (relative to ATG-Bis-40E9), luciferase assay on MM.1S [1]: 1.24 ratio
Ratio of EC50 (relative to ATG-Bis-40E9) [2]: 7.88 ratio
Ratio of Top MFI (relative to ATG-Bis-40E9) [2]: 6.35 ratio
Ratio of EC50 (relative to ATG-Bis-40E9) [3]: 5.78 ratio
Ratio of Top MFI (relative to ATG-Bis-40E9) [3]: 1.47 ratio
B3: Bis-40E9-L2H11 (bispecific antibody)
heavy 1: not shown
heavy 2: B1 heavy 2 with D262S, D336R, G337A
light: B1 light
notes: as for B1
Ratio of IC50 (relative to ATG-Bis-40E9), MM.1S cytotoxicity [4]: 13.7 ratio
Ratio of Top cytotoxicity (relative to ATG-Bis-40E9), MM.1S cytotoxicity [4]: 1 ratio

Ratio of EC50 (relative to ATG-Bis-40E9), luciferase assay on MM.1S [1]: 1.32 ratio
Ratio of Top RLU (relative to ATG-Bis-40E9), luciferase assay on MM.1S [1]: 0.79 ratio
Ratio of EC50 (relative to ATG-Bis-40E9) [2]: 4.53 ratio
Ratio of Top MFI (relative to ATG-Bis-40E9) [2]: 1.17 ratio
B4: Bis-40E9-L2H3-D105R.H (bispecific antibody)
heavy 1: not shown
heavy 2: B1 heavy 2 with D262S, D336R
light: B1 light
notes: Fab-scFv-Fab format with LALA mutations
Ratio of IC50 (relative to ATG-Bis-40E9), MM.1S cytotoxicity [4]: 0.86 ratio
Ratio of Top cytotoxicity (relative to ATG-Bis-40E9), MM.1S cytotoxicity [4]: 1.01 ratio

EC50 (nM), luciferase assay, L363 [6]: 0.258 nM
EC50 (nM), luciferase assay, MM.1S [6]: 0.18 nM
EC50 (nM), luciferase assay, MOLP-8 [6]: 0.00654 nM
EC50 (nM), luciferase assay, RPMI8226 [6]: 1.05 nM
Top (RLU), luciferase assay, L363 [6]: 898 RLU
Top (RLU), luciferase assay, MM.1S [6]: 2510 RLU
Top (RLU), luciferase assay, MOLP-8 [6]: 1190 RLU
Top (RLU), luciferase assay, RPMI8226 [6]: 261 RLU
MFI (50 µg/ml) [7]: 113 MFI
B5: Bis-40E9-L2H1 (bispecific antibody)
heavy: EVQLVQSGAEVKKPGASVKVSCKASGYTFTSYVIHWVRQAPGQGLEWMGYFNPYNDGTKYNEEFKGRVTLTSDKSTSTAYMELRSLRSDDTAVYYCARGGVRRYFDVWGQGTTVTVSS
heavy (part 1 of 2): B5 heavy
heavy (part 2 of 2): GGGGSGGGGSEVQLVQSGAEVKKPGSSVKVSCKASGGTFSSYVIHWVRQAPGQCLEWMGYINPYNDVIKYNEKFKGRVTITADKSTSTAYMELSSLRSEDTAVYYCARDSYYSYDGFAYWGQGTLVTVSSGGGGSGGGGSGGGGSGGGGSEIVLTQSPDFQSVTPKEKVTITCSASSSVSYMHWYQQKPDQSPKRLIYDTSKLASGVPSRFSGSGSGTDFTLTINSLEAEDAATYYCQQWSSNPPTFGCGTKVEIKGGGGSGGGGS
light: DIQMTQSPSSLSASVGDRVTITCRASQDIGSNLNWLQQKPGKAIKRLIYATFGLDSGVPSRFSGSRSGTDFTLTISSLQPEDFATYYCQQYASFPYTFGGGTKVEIK
notes: Fab-scFv-Fab (2+1), LALA; not shown: CH1; CL; CH2-CH3 with L234A, L235A; heavy chain constant region with L234A, L235A
IC50 (nM), T-Cell Dependent Cytotoxicity, MM.1S [5]: 0.0437 nM
IC50 (nM), T-Cell Dependent Cytotoxicity, MOLP-8 [5]: 0.0069 nM
IC50 (nM), T-Cell Dependent Cytotoxicity, RPMI8226 [5]: 0.356 nM
Top (%), T-Cell Dependent Cytotoxicity, MM.1S [5]: 56.3%
Top (%), T-Cell Dependent Cytotoxicity, MOLP-8 [5]: 58.3%
Top (%), T-Cell Dependent Cytotoxicity, RPMI8226 [5]: 25.9%
